Test results: US20190233493A1 (Sanofi, published 2019)

T1: RXFP1 receptor (UniProt Q9HBX9 1-757, limits assumed)
T1 sequence (looked up): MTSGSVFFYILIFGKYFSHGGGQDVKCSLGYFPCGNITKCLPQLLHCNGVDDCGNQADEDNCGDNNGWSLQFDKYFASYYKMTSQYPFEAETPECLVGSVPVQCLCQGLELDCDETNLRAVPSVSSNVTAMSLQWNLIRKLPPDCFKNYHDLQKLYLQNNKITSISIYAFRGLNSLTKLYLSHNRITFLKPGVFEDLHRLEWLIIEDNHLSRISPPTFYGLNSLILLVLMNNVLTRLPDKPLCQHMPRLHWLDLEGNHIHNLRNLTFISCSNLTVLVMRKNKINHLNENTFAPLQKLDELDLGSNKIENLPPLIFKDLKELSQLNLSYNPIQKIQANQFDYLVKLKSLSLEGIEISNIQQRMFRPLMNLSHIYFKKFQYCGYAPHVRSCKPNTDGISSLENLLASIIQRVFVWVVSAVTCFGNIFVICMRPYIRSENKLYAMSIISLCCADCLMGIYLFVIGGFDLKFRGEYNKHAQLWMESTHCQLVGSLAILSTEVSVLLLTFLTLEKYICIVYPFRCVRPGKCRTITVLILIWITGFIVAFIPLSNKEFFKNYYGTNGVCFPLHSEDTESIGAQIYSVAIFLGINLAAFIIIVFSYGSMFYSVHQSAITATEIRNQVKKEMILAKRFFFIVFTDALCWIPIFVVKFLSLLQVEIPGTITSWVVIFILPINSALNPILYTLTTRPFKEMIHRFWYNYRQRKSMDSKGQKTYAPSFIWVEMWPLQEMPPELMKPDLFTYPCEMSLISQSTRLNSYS


target: T1, RXFP1 receptor; assay: cell-based or functional assay

First: Ac-VIKLSGRELVRAQIAISGMSTWSKRSL-NH2 [AcB7-33 C11.23S]
Second: Ac-VIKLSGRELVRAQIAISGMSTWSKKKK-NH2 [KKKK(AcB7-29 C11.23S)]
The “EC50 (nM), cAMP assay in OVCAR 5 cells” value of the first is 4.5-fold higher: 929 nM for the first, 206 nM for the second.

With H-VIKLSGRELVRAQIAISGMSTWSKRSL-NH2 [B7-33 C11.23S] the “EC50 (nM), cAMP assay in OVCAR 5 cells” value was 1640 nM.

Compared with Ac-VIKLSGRELVRAQIAISGMSTWSKRSL-NH2 [AcB7-33 C11.23S], Ac-VIKLSGRELVRAQIAISGMSTWSKKKK-NH2 [KKKK(AcB7-29 C11.23S)] is higher in “Emax, cAMP assay in OVCAR 5 cells” value: 70% for the first, 84% for the second.

With H-VIKLSGRELVRAQIAISGMSTWSKRSL-NH2 [B7-33 C11.23S] the “Emax, cAMP assay in OVCAR 5 cells” value was 90%.
